Columns and labels:
alpha-thrombin (human) [1] = biological target: T1, alpha-thrombin (human) (Homo sapiens, UniProt P00734;P00734 315-363;364-622); assay: SPR; 1:1 approximation; SPR (Biacore X100, CM5, single-cycle kinetics, 1:1 fit): PBS pH 7.4, 0.05% (v/v) Tween 20; aptamers annealed in PBS (95 to 25 C); 1 M NaCl regeneration; assay t
alpha-thrombin (mouse) [2] = biological target: T2, alpha-thrombin (mouse) (Mus musculus, UniProt P19221;P19221 312-360;361-618); assay: SPR; 1:1 approximation; SPR (Biacore X100, CM5, single-cycle kinetics, 1:1 fit): PBS pH 7.4, 0.05% (v/v) Tween 20; aptamers annealed in PBS (95 to 25 C); 1 M NaCl regeneration; assay temperature not stated; details: protein: commercial; copies: 1;1; pseudo-circular, 17 bp duplex linker
alpha-thrombin (human) [3] = biological target: T1, alpha-thrombin (human); assay: SPR; SPR (Biacore X100, CM5, single-cycle kinetics, 1:1 fit): PBS pH 7.4, 0.05% (v/v) Tween 20; aptamers annealed in PBS (95 to 25 C); 1 M NaCl regeneration; assay t
alpha-thrombin (mouse) [4] = biological target: T2, alpha-thrombin (mouse); assay: SPR; SPR (Biacore X100, CM5, single-cycle kinetics, 1:1 fit): PBS pH 7.4, 0.05% (v/v) Tween 20; aptamers annealed in PBS (95 to 25 C); 1 M NaCl regeneration; assay temperature not stated; details: protein: commercial, copies: 1;1

B1: Pse08-29 (M08s-ds17-TBA29) (structured_DNA)
DNA: GTCACTAGAGGTCAGATGATGGGGATGGGGGGTTGGAGGAATGGATGACCTCTAGTGACTGATTTACGAGTCCGTGGTAGGGCAGGTTGGGGTGACTCGTAAATCA
alpha-thrombin (human) [1]
  Kd: 2.6 nM
alpha-thrombin (mouse) [2]
  Kd: 6.3 nM

B2: Pse08-08 (M08s-ds17-M08s) (structured_DNA)
DNA: GTCACTAGAGGTCAGATGATGGGGATGGGGGGTTGGAGGAATGGATGACCTCTAGTGACTGATTTACGAGGTCAGATGATGGGGATGGGGGGTTGGAGGAATGGATGACCTCGTAAATCA
alpha-thrombin (human) [3]
  Kd: 0.4 nM
alpha-thrombin (mouse) [4]; pseudo-circular, 17 bp duplex linker
  Kd: 4.2 nM

## AGTCCGTGGTAGGGCAGGTTGGGGTGACT (structured_DNA) [TBA29 (HD22)]
alpha-thrombin (human) [3]
  Kd: 36.9 nM
alpha-thrombin (mouse) [4]
  Kd: 22 nM

## AGGTCAGATGATGGGGATGGGGGGTTGGAGGAATGGATGACCT (structured_DNA) [M08s-1 (M08s)]
alpha-thrombin (human) [3]
  Kd: 47.2 nM
alpha-thrombin (mouse) [4]; predicted G4 with stem
  Kd: 495 nM

From publication PMC10445101, “A neutralizable dimeric anti-thrombin aptamer with potent anticoagulant activity in mice”
